The source of these data is PMC9352680, “A comprehensive thermodynamic model for RNA binding by the Saccharomyces cerevisiae Pumilio protein PUF4”.

A value given as a limit tells only on which side of the number the result lay.

To fix the notation:
T1: PUF4 RNA-binding domain (Saccharomyces cerevisiae, UniProt P25339 537-888)
T1 sequence: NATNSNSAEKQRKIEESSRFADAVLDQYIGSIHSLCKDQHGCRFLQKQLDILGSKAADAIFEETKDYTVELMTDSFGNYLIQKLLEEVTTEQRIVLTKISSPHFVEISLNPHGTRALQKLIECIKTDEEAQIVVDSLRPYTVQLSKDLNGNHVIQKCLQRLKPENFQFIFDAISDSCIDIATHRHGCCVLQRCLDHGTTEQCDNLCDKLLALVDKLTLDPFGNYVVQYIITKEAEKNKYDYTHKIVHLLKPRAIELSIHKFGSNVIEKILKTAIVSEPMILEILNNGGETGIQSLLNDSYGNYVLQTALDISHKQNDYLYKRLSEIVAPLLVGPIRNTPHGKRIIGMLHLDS

B1: Ib_S4_P3E.1_K3.1_C3.1_H3.1_A3.1_F3.1_[T7G]_[A8C]_T3.1 (ssRNA)
RNA: UUUGACAACUGAUCGUUCUUUCUUGUAUAGCUUCUUUCUCGAUCAGUUGUCUUU
B2: Ia_S2_P5E.1_K5.1_C5.1_H5.1_A5.1_[T5A]_F5.1_T5.1 (ssRNA)
RNA: UUUGAUUAAUAUGAUAUCGUUCUUUCUUGUAAUAUUAUUCUUUCUCGAUAUCAUAUUAAUCUUU
B3: Ia_S2_P5E.1_K5.1_C5.1_H5.1_A5.1_[T6C]_F5.1_T5.1 (ssRNA)
RNA: UUUGAUUAAUAUGAUAUCGUUCUUUCUUGUAUCAUUAUUCUUUCUCGAUAUCAUAUUAAUCUUU
B4: Ia_S2_P5E.1_K5.1_C5.1_H5.1_A5.1_[T6A]_F5.1_T5.1 (ssRNA)
RNA: UUUGAUUAAUAUGAUAUCGUUCUUUCUUGUAUAAUUAUUCUUUCUCGAUAUCAUAUUAAUCUUU
B5: Ia_S2_P5E.1_K5.1_C5.1_H5.1_A5.1_[A7G]_F5.1_T5.1 (ssRNA)
RNA: UUUGAUUAAUAUGAUAUCGUUCUUUCUUGUAUUGUUAUUCUUUCUCGAUAUCAUAUUAAUCUUU
B6: Ia_S2_P5E.1_K5.1_C5.1_H5.1_A5.1_[A7C]_F5.1_T5.1 (ssRNA)
RNA: UUUGAUUAAUAUGAUAUCGUUCUUUCUUGUAUUCUUAUUCUUUCUCGAUAUCAUAUUAAUCUUU

The Kd is the free concentration of one partner at which half of the binding sites on the other are occupied at equilibrium, for simple one-to-one binding. A higher Kd goes with a looser complex.

In this series the target is T1, PUF4 RNA-binding domain. Briefly: Mg; RNA-MaP; 20 mM Na-HEPES pH 7.4, 30 mM KOAc, 0.75 mM MgCl2, 0.1% Tween-20, 5% glycerol, 0.1 mg/mL BSA, 2 mM DTT; 25 C; 0.0125-409.6 nM protein. Conditions: tags: N-His6-TEV cleaved; C-SNAP kept, Cy3B-labelled; label: tethered on chip by stalled RNA polymerase.
On to ACAAACUGGAUUAAUAACAAAC (ssRNA) [Ib_S3_P5E.1_K5.1_C5.1_H5.1_[T3G]_A5.1_F5.1_[T8A]_T5.1], for which the Kd was more than 2300 nM.
Then ACAAACUAUAGUAUUAACAAAC (ssRNA) [Ib_S3_P5E.1_K5.1_C5.1_H5.1_[G2A]_A5.1_[T5G]_F5.1_T5.1], with more than 2300 nM; and ACAAACUGGACUAUUAACAAAC (ssRNA) [Ib_S3_P5E.1_K5.1_C5.1_H5.1_[T3G]_A5.1_[T5C]_F5.1_T5.1], with more than 2300 nM; and ACAAACUCUAUAAUUAACAAAC (ssRNA) [Ib_S3_P5E.1_K5.1_C5.1_H5.1_[G2C]_A5.1_[T6A]_F5.1_T5.1], with more than 2300 nM.
Then B1, with 85.3 nM.
The figure for ACAAACAGUAGAUUAACAAAC (ssRNA) [Ib_S3_P4E.1_K4.1_C4.1_H4.1_[T1A]_A4.1_[T5G]_F4.1_T4.1] is 828 nM.
Turning to ACAAACUUUAUCAUUAACAAAC (ssRNA) [Ib_S3_P5E.1_K5.1_C5.1_H5.1_[G2T]_A5.1_[T6C]_F5.1_T5.1], the dissociation constant Kd was more than 2300 nM.
The figure for ACAAACUGAAUAAUAACAAAC (ssRNA) [Ib_S3_P4E.1_K4.1_C4.1_H4.1_[T3A]_A4.1_[T7A]_F4.1_T4.1] is more than 2300 nM; for ACAAACAGGAUUAUUAACAAAC (ssRNA) [Ib_S3_P5E.1_K5.1_C5.1_H5.1_[T1A]_[T3G]_A5.1_F5.1_T5.1] it is more than 2300 nM; for ACAAACCCUAUUAUUAACAAAC (ssRNA) [Ib_S3_P5E.1_K5.1_C5.1_H5.1_[T1C]_[G2C]_A5.1_F5.1_T5.1] it is more than 2300 nM.
The figure for ACAAACUAUAUUAUUUACAAAC (ssRNA) [Ib_S3_P5E.1_K5.1_C5.1_H5.1_[G2A]_A5.1_F5.1_[A10T]_T5.1] is 994 nM.
ACAAACUGUCUUCUUAACAAAC (ssRNA) [Ib_S3_P5E.1_K5.1_C5.1_H5.1_[A4C]_A5.1_[A7C]_F5.1_T5.1] had a Kd of 2190 nM.
Regarding ACAAACCUUAUUAUUAACAAAC (ssRNA) [Ib_S3_P5E.1_K5.1_C5.1_H5.1_[T1C]_[G2T]_A5.1_F5.1_T5.1], the equilibrium dissociation constant (Kd) was more than 2300 nM.
The figure for ACAAACUCCAUAUUAACAAAC (ssRNA) [Ib_S3_P4E.1_K4.1_C4.1_H4.1_[G2C]_[T3C]_A4.1_F4.1_T4.1] is more than 2300 nM; for ACAAACUGCAUUACUAACAAAC (ssRNA) [Ib_S3_P5E.1_K5.1_C5.1_H5.1_[T3C]_A5.1_F5.1_[T8C]_T5.1] it is more than 2300 nM; for ACAAACAGUAAAUUAACAAAC (ssRNA) [Ib_S3_P4E.1_K4.1_C4.1_H4.1_[T1A]_A4.1_[T5A]_F4.1_T4.1] it is 596 nM.
Then ACAAACGGUCUUAUUAACAAAC (ssRNA) [Ib_S3_P5E.1_K5.1_C5.1_H5.1_[T1G]_[A4C]_A5.1_F5.1_T5.1], with more than 2300 nM.
Then B2, with 4.27 nM; and B3, with 1.73 nM.
Consider B4, for which the dissociation constant (Kd) amounted to 2.33 nM.
Then B5, with 11.6 nM.
Consider B6, for which the Kd turned out to be 3.06 nM.
Then ACAAACUUUAAUAUUAACAAAC (ssRNA) [Ib_S3_P5E.1_K5.1_C5.1_H5.1_[G2T]_A5.1_[T5A]_F5.1_T5.1], with more than 2300 nM.
Then UCUCUUUAUAUAUAUCUCUU (ssRNA) [Ia_S1_P3E.1_K3.1_C3.1_H3.1_[G2A]_A3.1_F3.1_T3.1], with 637 nM; and ACAAACUCCAUUAUUAACAAAC (ssRNA) [Ib_S3_P5E.1_K5.1_C5.1_H5.1_[G2C]_[T3C]_A5.1_F5.1_T5.1], with more than 2300 nM.
The figure for ACAAACAGUCUUAUUAACAAAC (ssRNA) [Ib_S3_P5E.1_K5.1_C5.1_H5.1_[T1A]_[A4C]_A5.1_F5.1_T5.1] is more than 2300 nM; for ACAAACUGUCUUAUUUACAAAC (ssRNA) [Ib_S3_P5E.1_K5.1_C5.1_H5.1_[A4C]_A5.1_F5.1_[A10T]_T5.1] it is 641 nM; for ACAAACCGUAUUAUUCACAAAC (ssRNA) [Ib_S3_P5E.1_K5.1_C5.1_H5.1_[T1C]_A5.1_F5.1_[A10C]_T5.1] it is more than 2300 nM.
ACAAACUGCAUAAUAACAAAC (ssRNA) [Ib_S3_P4E.1_K4.1_C4.1_H4.1_[T3C]_A4.1_[T7A]_F4.1_T4.1] displayed a dissociation constant (Kd) of 1450 nM.
ACAAACCGUAUUUUAACAAAC (ssRNA) [Ib_S3_P4E.1_K4.1_C4.1_H4.1_[T1C]_A4.1_[A6T]_F4.1_T4.1] showed a dissociation constant (Kd) of 1400 nM.
Then ACAAACCGUAUAAUUAACAAAC (ssRNA) [Ib_S3_P5E.1_K5.1_C5.1_H5.1_[T1C]_A5.1_[T6A]_F5.1_T5.1], with 1180 nM; and ACAAACGGUAUCAUUAACAAAC (ssRNA) [Ib_S3_P5E.1_K5.1_C5.1_H5.1_[T1G]_A5.1_[T6C]_F5.1_T5.1], with 1450 nM.
Then ACAAACAGUAUAAUUAACAAAC (ssRNA) [Ib_S3_P5E.1_K5.1_C5.1_H5.1_[T1A]_A5.1_[T6A]_F5.1_T5.1], with 1740 nM.
As to ACAAACCGUAUUUUUAACAAAC (ssRNA) [Ib_S3_P5E.1_K5.1_C5.1_H5.1_[T1C]_A5.1_[A7T]_F5.1_T5.1], the dissociation constant (Kd) was more than 2300 nM.
The molecule ACAAACUGUCCUAUUAACAAAC (ssRNA) [Ib_S3_P5E.1_K5.1_C5.1_H5.1_[A4C]_A5.1_[T5C]_F5.1_T5.1] returned a dissociation constant (Kd) of 545 nM.
Then ACAAACUGAACUAUUAACAAAC (ssRNA) [Ib_S3_P5E.1_K5.1_C5.1_H5.1_[T3A]_A5.1_[T5C]_F5.1_T5.1], with more than 2300 nM; and ACAAACUAUAUAAUUAACAAAC (ssRNA) [Ib_S3_P5E.1_K5.1_C5.1_H5.1_[G2A]_A5.1_[T6A]_F5.1_T5.1], with 1050 nM.
Then ACAAACUGGAUUACUAACAAAC (ssRNA) [Ib_S3_P5E.1_K5.1_C5.1_H5.1_[T3G]_A5.1_F5.1_[T8C]_T5.1], with more than 2300 nM.
The figure for ACAAACUAUAUUAAUAACAAAC (ssRNA) [Ib_S3_P5E.1_K5.1_C5.1_H5.1_[G2A]_A5.1_F5.1_[T8A]_T5.1] is 1580 nM; for ACAAACUGUCUUACUAACAAAC (ssRNA) [Ib_S3_P5E.1_K5.1_C5.1_H5.1_[A4C]_A5.1_F5.1_[T8C]_T5.1] it is 1030 nM.
As to ACAAACUAUUUUAUUAACAAAC (ssRNA) [Ib_S3_P5E.1_K5.1_C5.1_H5.1_[G2A]_[A4T]_A5.1_F5.1_T5.1], the Kd is more than 2300 nM.
The figure for ACAAACAGUAUCUUAACAAAC (ssRNA) [Ib_S3_P4E.1_K4.1_C4.1_H4.1_[T1A]_A4.1_[A6C]_F4.1_T4.1] is more than 2300 nM.
Then ACAAACUGGAUUAUGAACAAAC (ssRNA) [Ib_S3_P5E.1_K5.1_C5.1_H5.1_[T3G]_A5.1_F5.1_[T9G]_T5.1], with more than 2300 nM; and ACAAACUGCAUUUUAACAAAC (ssRNA) [Ib_S3_P4E.1_K4.1_C4.1_H4.1_[T3C]_A4.1_[A6T]_F4.1_T4.1], with 1910 nM.
Then ACAAACAGUAUUUUUAACAAAC (ssRNA) [Ib_S3_P5E.1_K5.1_C5.1_H5.1_[T1A]_A5.1_[A7T]_F5.1_T5.1], with more than 2300 nM; and ACAAACUGAAUUAUAAACAAAC (ssRNA) [Ib_S3_P5E.1_K5.1_C5.1_H5.1_[T3A]_A5.1_F5.1_[T9A]_T5.1], with more than 2300 nM.
ACAAACUUUAUUAUUUACAAAC (ssRNA) [Ib_S3_P5E.1_K5.1_C5.1_H5.1_[G2T]_A5.1_F5.1_[A10T]_T5.1] showed a Kd of more than 2300 nM.
The molecule ACAAACCGUAGAUUAACAAAC (ssRNA) [Ib_S3_P4E.1_K4.1_C4.1_H4.1_[T1C]_A4.1_[T5G]_F4.1_T4.1] yielded a dissociation constant (Kd) of 455 nM. This lies in the sub-micromolar range.
The figure for ACAAACUGACUUAUUAACAAAC (ssRNA) [Ib_S3_P5E.1_K5.1_C5.1_H5.1_[T3A]_[A4C]_A5.1_F5.1_T5.1] is more than 2300 nM; for ACAAACUAUUUAUUAACAAAC (ssRNA) [Ib_S3_P4E.1_K4.1_C4.1_H4.1_[G2A]_[A4T]_A4.1_F4.1_T4.1] it is more than 2300 nM.
Then ACAAACAUUAUAUUAACAAAC (ssRNA) [Ib_S3_P4E.1_K4.1_C4.1_H4.1_[T1A]_[G2T]_A4.1_F4.1_T4.1], with more than 2300 nM; and UCUCUUUGUAUACAUCUCUU (ssRNA) [Ia_S1_P3E.1_K3.1_C3.1_H3.1_A3.1_F3.1_[T7C]_T3.1], with 44.6 nM; and ACAAACUGAAUACUAACAAAC (ssRNA) [Ib_S3_P4E.1_K4.1_C4.1_H4.1_[T3A]_A4.1_[T7C]_F4.1_T4.1], with 1130 nM.
ACAAACUAAAUUAUUAACAAAC (ssRNA) [Ib_S3_P5E.1_K5.1_C5.1_H5.1_[G2A]_[T3A]_A5.1_F5.1_T5.1]: the Kd is more than 2300 nM.
The figure for ACAAACGGUAUUUUUAACAAAC (ssRNA) [Ib_S3_P5E.1_K5.1_C5.1_H5.1_[T1G]_A5.1_[A7T]_F5.1_T5.1] is 1600 nM.
Then ACAAACUCUAUAGUAACAAAC (ssRNA) [Ib_S3_P4E.1_K4.1_C4.1_H4.1_[G2C]_A4.1_[T7G]_F4.1_T4.1], with more than 2300 nM; and ACAAACAGUAUCAUUAACAAAC (ssRNA) [Ib_S3_P5E.1_K5.1_C5.1_H5.1_[T1A]_A5.1_[T6C]_F5.1_T5.1], with more than 2300 nM.
